Test results as given in patent US9089613B2, “Drug activation system” (BANGOR UNIVERSITY, priority 2009, dated 2015).

Assay: Enzyme reactivity to prodrugs before and after attachment to colloidal gold (UV/Vis, NADH oxidation at 340 nm, hydroxylamine formation at 420 nm)
Assay type: biochemical
Conditions: for Specific activity: CB1954 prodrug, excess NADH, 37° C., bound samples on 20 nm gold colloid at molar ratio 87:1 enzymes:gold; for Retained activity (%): compared to the same concentration of enzyme free in solution, CB1954, molar ratio 87:1 enzymes:gold
Protocol: The ability of the different nitroreductases to metabolise the selected prodrugs is assessed as the conversion of NADH to NAD^+ by UV-vis spectra. The kinetic parameters of the purified enzymes are measured by UV-vis spectra before and after their attachment to gold particles based on their ability to use NADH or an alternative cofactor such as for example nicotinic acid riboside for the reduction of the prodrugs.
For these experiments, a 300 molar equivalents of enzyme were incubated with gold colloid, as this appeared to be the minimum amount of enzyme to cover the gold nanoparticle surface as determined by UV/Vis spectrometry, electrophoresis, and stability experiments. 3.206 nmol of the NfnB and cys-NfnB enzymes in ultra pure water were incubated with 1.5 ml 20 nm Naked Gold® (7.125×10^−3 μM) at a temperature of 4° C. overnight. As controls, the same treatment was carried out for NfnB and cys-NfnB in the absence of gold colloid. The next day the solutions were divided in half and each made up to a total volume of 970 μl using ultra pure water. To each sample, 20 μl of NADH (10 mM) were added and incubated at a temperature of 37° C. for 5 min. The absorbance spectra (750 nm-200 nm) were recorded every 1.5 min for 20 min upon the addition of 10 μl CB 1954 (10 mM) or 20 μl SN 23862 (5 mM) to the test sample, and an equivalent volume of dimethyl sulfoxide (DMSO) to the reference solution. The oxidation of NADH, measured as the decrease at 340 nm, was used as an indication of reactivity of the enzyme for the substrate. The reactivity experiments were done for enzyme: gold conjugate solutions and for enzymes free in solution.
The ability of both recombinant NfnB and cys-NfnB to activate the CB1954 prodrug, before and after attachment to the gold colloid were compared. The free enzyme is known to be active as a dimer in which each monomer is closely associated with a flavin mononucleotide (FMN) molecule, and has two substrate binding pockets as explained in Lovering et al. (Lovering A. L., Hyde E. I., Searle P. F. and White S. A., in Journal of Molecular Biology, 309: 203-213, 2001) or in Zenno et al. (Zenno S, Koike H, Tanokura M and Saigo' K, in Journal of Biochemistry, 120: 736-744, 1996). […]
The formation of hydroxylamine products was monitored at 420 nm using UV/Vis spectroscopy in the presence of enzyme and excess NADH as previously described. […]
It was observed that both the NADH and CB1954 substrates were consumed in the presence of recombinant NfnB, with the simultaneous production of the hydroxylamine product. The same experiment was performed for recombinant NfnB immobilised onto the gold colloid at a molar ratio of 87:1 enzymes to gold, to ensure that any activity measured was not due to excess enzyme free in solution. […]

B1: NfnB (unbound): his-tagged wildtype NfnB nitroreductase from Escherichia coli K12, free in solution (protein, UniProt P38489 1-217, looked up)
Oxygen-insensitive NAD(P)H …: MDIISVALKRHSTKAFDASKKLTPEQAEQIKTLLQYSPSSTNSQPWHFIVASTEEGKARVAKSAAGNYVFNERKMLDASHVVVFCAKTAMDDVWLKLVVDQEDADGRFATPEAKAANDKGRKFFADMHRKDLHDDAEWMAKQVYLNVGNFLLGVAALGLDAVPIEGFDAAILDAEFGLKEKGYTSLVVVPVGHHSVEDFNATLPKSRLPQNITLTEV
modifications: His tag
notes: his-tagged wildtype NfnB nitroreductase from Escherichia coli K12, free in solution
Specific activity: 0.169 µmol/min/mg
Retained activity (%): 100%

B2: NfnB (bound to gold): recombinant NfnB nitroreductase immobilised onto 20 nm gold colloid (conjugate, UniProt P38489 1-217, looked up)
Oxygen-insensitive NAD(P)H …: MDIISVALKRHSTKAFDASKKLTPEQAEQIKTLLQYSPSSTNSQPWHFIVASTEEGKARVAKSAAGNYVFNERKMLDASHVVVFCAKTAMDDVWLKLVVDQEDADGRFATPEAKAANDKGRKFFADMHRKDLHDDAEWMAKQVYLNVGNFLLGVAALGLDAVPIEGFDAAILDAEFGLKEKGYTSLVVVPVGHHSVEDFNATLPKSRLPQNITLTEV
modifications: immobilised on gold colloid
notes: recombinant NfnB nitroreductase immobilised onto 20 nm gold colloid
Specific activity: 0.168 µmol/min/mg
Retained activity (%): 99.5%
